{
  "source": "patent US4638005A",
  "about": "“Monoquaternized pyrazinium compounds and their use as electron carriers in photosynthetic processes” (The Coca-Cola Company, priority 1983, dated 1987)",
  "key": {"[1]": {"conditions": "cited from earlier work"}, "[2]": {"assay": "Polarographic half-wave potential (first wave reduction)", "format": "physicochemical", "conditions": "0.1 M phosphate buffer pH 7.55, 25° C.", "source_text": "Sci., 65, 1471(1976). Therefore, it was of interest to measure polarographically the half-wave potentials of the several pyrazinium salts under consideration, to determine the possible effect of structure upon their redox potentials."}, "[3]": {"target": "T1, nitrogenase (Azotobacter vinelandii, UniProt P00459)", "T1 construct": "the nitrogenase sample was prepared from a culture of Azotobacter vinelandii; endogenous in cells; host or cells: Azotobacter vinelandii culture; French press lysate, 10,000 x g supernatant (crude)", "T1 sequence (P00459 2-290 limits assumed)": "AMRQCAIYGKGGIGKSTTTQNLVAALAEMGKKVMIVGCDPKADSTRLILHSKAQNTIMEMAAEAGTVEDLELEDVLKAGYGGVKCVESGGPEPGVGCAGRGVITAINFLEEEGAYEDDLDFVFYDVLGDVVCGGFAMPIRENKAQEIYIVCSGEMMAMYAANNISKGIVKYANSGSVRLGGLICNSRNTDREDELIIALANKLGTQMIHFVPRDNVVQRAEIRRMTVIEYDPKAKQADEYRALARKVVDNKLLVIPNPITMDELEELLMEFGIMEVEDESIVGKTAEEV", "assay": "Chloroplast-coupled reduction of acetylene to ethylene by nitrogenase (electron carrier bioassay of Benemann)", "format": "biochemical", "outline": "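Spinach chloroplasts (heat-inactivated, per Benemann) under illumination couple electrons via the carrier to crude A. vinelandii nitrogenase extract (French-press supernatant, 40 mg/ml protein). Synthetic carriers tested as 2 mM aqueous solutions, clostridial ferredoxin standard at 0.2 mM, chosen for carrier saturation; ethylene formed from acetylene reported as nmol/mg protein/min.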"}, "[4]": {"target": "T1, nitrogenase", "assay": "Chloroplast-coupled evolution of hydrogen by nitrogenase in the absence of substrate", "format": "biochemical", "conditions": "Table II, hydrogen evolution", "outline": "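Hydrogen evolution was measured with Azotobacter vinelandii crude extract (10,000 × g supernatant, 40 mg/ml protein) driven by illuminated heat-inactivated spinach chloroplasts, with nitrogen and acetylene excluded. Synthetic carriers were tested as 2 mM aqueous solutions, at concentrations chosen for carrier saturation; clostridial ferredoxin (0.2 mM) served as the standard.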"}},
  "data": [
    {"substance": "Clostridial Ferredoxin: the standard, clostridial ferredoxin; natural protein electron carrier, used in 0.2 mM aqueous solution (AYKIADSCVSCGACASECPVNAISQGDSIFVIDADTCIDCGNCANVCPVGAPVQE; UniProt P00195 2-56, looked up) [reference compound]", "values": [
      {"measurement": "midpoint potential", "setting": "[1]; natural electron carriers for the nitrogenase", "result": -570, "unit": "mV"},
      {"measurement": "half-wave potential", "setting": "[1]; pH 7.52", "result": -570, "unit": "mV"},
      {"measurement": "E1/2 vs. SCE (mV)", "setting": "[2]", "result": -570, "unit": "mV"},
      {"measurement": "ACTIVITY RELATIVE TO FERREDOXIN (%)", "setting": "[3]; Table I, acetylene reduction to ethylene", "result": 100, "unit": "%"},
      {"measurement": "ACTIVITY (nmoles C2 H4 /mg protein/min)", "setting": "[3]; Table I, illuminated spinach chloroplasts, synthetic carriers 2 mM, clostridial ferredoxin 0.2 mM", "result": "13.5 nmoles C2 H4 /mg protein/min"},
      {"measurement": "ETHYLENE FORMATION % Ferredoxin Activity", "setting": "[3]; Table III ranking", "result": 100, "unit": "%"},
      {"measurement": "% FERREDOXIN ACTIVITY", "setting": "[3]; Table IV, acetylene reduction", "result": 100, "unit": "%"},
      {"measurement": "ACTIVITY RELATIVE TO FERREDOXIN (%)", "setting": "[4]", "result": 100, "unit": "%"},
      {"measurement": "ACTIVITY (nmoles H2 /mg protein/min)", "setting": "[4]; no nitrogen or acetylene, synthetic carriers 2 mM, ferredoxin 0.2 mM", "result": 26.7, "unit": "nmoles H2 /mg protein/min"}
    ]}
  ]
}
